Consider 5 molecules from patent US20220281997A1.

Sequences and labels used below:
B1: R166.G8 (antibody, V domains shown)
VH: LEQSGGGAEGGLVKPGGSLELCCKASGFSLSNIYWICWVRQAPGTGLEWIGCINSGSNSYTYYANWVDGRFTLSRDIDQSTGCLQLNSLTAADTAMYYCARDRDAADTSDWSLNFWGQGTLVTVSS
VL: QVLTQTPSSVSAAVGGTVTISCQSSDSVNNDNWLAWYQQKPGQPPKLLIYQASKLASGVPSRFSGSGSGTQFTLTISGVQCDDAANYYCQGTGYSSTWYVAFGGGTEVVVKG
B2: R166.H9 (antibody, V domains shown)
VH: QSLEESGGRLVTPGTPLTLTCTASGFSLNNYNMIWVRQAPGEGLEWIGMIGDGDDAAWYASWAKGRFTISKTSTTVDLEVTSLTTEDTAIYFCARYLSFTRLDLWGQGTLVTVSS
VL: AVLTQTPSPVSAAVGGTVTINCQSSQSVYHNNWLAWYQQKPGQPPKLLIYGAATLASGVPSRFKGSGSGTQFTFTITDVQCDDVGTYYCAGVYNDDSENAFGGGTEVVVKG
B3: R166.C5 (antibody, V domains shown)
VH: QSVEESGGRLVTPGTPLTLTCTVSGFSLRNFAMSWVRQAPGKGLEWIGIIYSGGTRDYATWAKGRFTISKTSTTVDLKMTSPTTEDTATYFCARDRSPDYSAAFLLWGQGTLVTVSS
VL: IVMTQTPSSKSVPVGDTVTINCQASESVYSNNHLAWFQQKPGQPPKLLIYSASTLESGVPSRFKGSGSGTQFTLTISGVQCDDAATYYCAGYKSSDTDGTSFGGGTEVVVKG
B4: R166.E7 (antibody, V domains shown)
VH: B3 VH with R29S, N30S, S52T, L105N
VL: B3 VL
B5: R166.H8 (antibody, V domains shown)
VH: QSVEESGGRLVTPGTPLTLTCTVSGFSLSSFAMSWVRQAPGKGLEWIGIIYATGGTRDYATWAAGRFTISKTSTTVGLKMTSPTTEDTATYFCARDRSPDYSAAFNLWGQGTLVTVSS
VL: B3 VL

Where a chain is given by its changes, count along the chain named.

The experiment concerns the target camel-derived heavy-chain antibodies on camel PBMC cells. In words: flow cytometry, PE-labeled antibody on PBMC of a non-immunized camel.
Molecule B1 yielded a proportion of PBMC cells specific for heavy-chain antibodies of 17.2%.
In turn, B2 displayed a proportion of PBMC cells specific for heavy-chain antibodies of 24.2%.
For B3 the value was 22.8%; for B4, 23.3%; for B5, 23.6%.
